B1: BK polyomavirus minor capsid protein VP2 (natural protein)
chain: MGAALALLGDLVASVSEAAAATGFSVAEIAAGEAAAAIEVQIASLATVEGITSTSEAIAAIGLTPQTYAVIAGAPGAIAGFAALIQTVSGISSLAQVGYRFFSDWDHKVSTVGLYQQSGMALELFNPDEYYDILFPGVNTFVNNIQYLDPRHWGPSLFATISQALWHVIRDDIPSITSQELQRRTERFFRDSLARFLEETTWTIVNAPINFYNYIQQYYSDLSPIRPSMVRQVAEREGTRVHFGHTYSIDDADSIEEVTQRMDLRNQQSVHSGEFIEKTIAPGGANQRTAPQWMLPLLLGLYGTVTPALEAYEDGPNQKKRRVSRGSSQKAKGTRASAKTTNKRRSRSSRS
notes: Minor capsid protein VP2 of BK polyomavirus, Dunlop strain; printed mass 38.3 kDa; same open reading frame as VP3, with an extended N terminus; The introduction says the extended N terminus of VP2 holds a site for myristoylation; also called VP2/3; VP2/VP3; source: Vero cells transfected/infected with the BK Dunlop genome; in purified virions (CsCl gradient, 1-MDa centrifugal concentrator)
B2: BK polyomavirus minor capsid protein VP3 (natural protein)
chain: MALELFNPDEYYDILFPGVNTFVNNIQYLDPRHWGPSLFATISQALWHVIRDDIPSITSQELQRRTERFFRDSLARFLEETTWTIVNAPINFYNYIQQYYSDLSPIRPSMVRQVAEREGTRVHFGHTYSIDDADSIEEVTQRMDLRNQQSVHSGEFIEKTIAPGGANQRTAPQWMLPLLLGLYGTVTPALEAYEDGPNQKKRRVSRGSSQKAKGTRASAKTTNKRRSRSSRS
notes: Minor capsid protein VP3 of BK polyomavirus, Dunlop strain; printed mass 26.7 kDa; expressed from the same open reading frame as VP2 but without VP2's extended N terminus; also called VP2/3; VP2/VP3; source: Vero cells transfected/infected with the BK Dunlop genome; in purified virions (CsCl gradient, 1-MDa centrifugal concentrator)
B3: BK polyomavirus major capsid protein VP1 (native infectious virion, Dunlop strain) (natural protein)
chain: MAPTKRKGECPGAAPKKPKEPVQVPKLLIKGGVEVLEVKTGVDAITEVECFLNPEMGDPDENLRGFSLKLSAENDFSSDSPERKMLPCYSTARIPLPNLNEDLTCGNLLMWEAVTVQTEVIGITSMLNLHAGSQKVHEHGGGKPIQGSNFHFFAVGGEPLEMQGVLMNYRSKYPDGTITPKNPTAQSQVMNTDHKAYLDKNNAYPVECWVPDPSRNENARYFGTFTGGENVPPVLHVTNTATTVLLDEQGVGPLCKADSLYVSAADICGLFTNSSGTQQWRGLARYFKIRLRKRSVKNPYPISFLLSDLINRRTQRVDGQPMYGMESQVEEVRVFDGTERLPGDPDMIRYIDKQGQLQTKML
notes: Major capsid protein VP1 of BK polyomavirus, Dunlop strain, as assembled in the native virion; Five copies form one penton; 72 pentons form the T = 7d capsid, with VP1 in six quasi-equivalent conformations; PDB 5FUA is a homology model of BK VP1 (built on SV40, PDB 1SVA) fitted into the virion map; also called BK VP1; BKPyV VP1; source: Vero cells transfected/infected with the BK Dunlop genome; …

The target of data set [1] is BK polyomavirus major capsid protein VP1 (VP1-only virus-like particle) (BK polyomavirus) (UniProt P03088). As to the kind of experiment: cryo-EM structure; purified VP1-only VLPs in buffer A supplemented with 50 mM CaCl2, vitrified; FEI Polara, K2 summit in super-resolution mode; icosahedral single-particle reconstruction in RELION, 9.1 Å.
Data set [2] has as its target B3. As to the kind of experiment: cryo-EM structure; purified native BK virions in buffer A (10 mM HEPES pH 7.9, 1 mM CaCl2, 1 mM MgCl2, 5 mM KCl), vitrified; FEI Tecnai-F20, 200 kV, K2-Summit; icosahedral single-particle reconstruction in RELION, 7.6 Å. The following applies: both partners purified.
Data set [3] concerns the molecule itself. The description is as above.

As a reminder, the stoichiometry N is the number of molecules, sites or subunits per partner or assembly. In data set [1], “BK polyomavirus major capsid protein VP1 (VP1-only virus-like particle) (from UniProt P03088 1-362) (natural protein)” yielded a stoichiometry N of 5.

For the molecule B1, the binding result in data set [2] was “binds”.

Regarding B2, the binding result in data set [2] is “binds”.

Regarding B3, the “stoichiometry N” value in data set [3] is 5.

The record behind these values is publication PMC4826271, “New Structural Insights into the Genome and Minor Capsid Proteins of BK Polyomavirus using Cryo-Electron Microscopy” (Structure(London, England:1993), 2016).
